The values that follow come from FireProtDB.

Values joined by “and” are separate entries in the source; they are usually repeats but may differ in a detail not shown here. Identical values can stand only once.

The labels stand for the following.
B1: Ribonuclease, P00648 (parent)
chain: MMKMEGIALKKRLSWISVCLLVLVSAAGMLFSTAAKTETSSHKAHTEAQVINTFDGVADYLQTYHKLPDNYITKSEAQALGWVASKGNLADVAPGKSIGGDIFSNREGKLPGKSGRTWREADINYTSGFRNSDRILYSSDWLIYKTTDHYQTFTKIR
B2: Copper-transporting ATPase 2, P35670 (parent)
chain: MPEQERQITAREGASRKILSKLSLPTRAWEPAMKKSFAFDNVGYEGGLDGLGPSSQVATSTVRILGMTCQSCVKSIEDRISNLKGIISMKVSLEQGSATVKYVPSVVCLQQVCHQIGDMGFEASIAEGKAASWPSRSLPAQEAVVKLRVEGMTCQSCVSSIEGKVRKLQGVVRVKVSLSNQEAVITYQPYLIQPEDLRDHVNDMGFEAAIKSKVAPLSLGPIDIERLQSTNPKRPLSSANQNFNNSETLGHQGSHVVTLQLRIDGMHCKSCVLNIEENIGQLLGVQSIQVSLENKTAQVKYDPSCTSPVALQRAIEALPPGNFKVSLPDGAEGSGTDHRSSSSHSPGSPPRNQVQGTCSTTLIAIAGMTCASCVHSIEGMISQLEGVQQISVSLAEGTATVLYNPSVISPEELRAAIEDMGFEASVVSESCSTNPLGNHSAGNSMVQTTDGTPTSVQEVAPHTGRLPANHAPDILAKSPQSTRAVAPQKCFLQIKGMTCASCVSNIERNLQKEAGVLSVLVALMAGKAEIKYDPEVIQPLEIAQFIQDLGFEAAVMEDYAGSDGNIELTITGMTCASCVHNIESKLTRTNGITYASVALATSKALVKFDPEIIGPRDIIKIIEEIGFHASLAQRNPNAHHLDHKMEIKQWKKSFLCSLVFGIPVMALMIYMLIPSNEPHQSMVLDHNIIPGLSILNLIFFILCTFVQLLGGWYFYVQAYKSLRHRSANMDVLIVLATSIAYVYSLVILVVAVAEKAERSPVTFFDTPPMLFVFIALGRWLEHLAKSKTSEALAKLMSLQATEATVVTLGEDNLIIREEQVPMELVQRGDIVKVVPGGKFPVDGKVLEGNTMADESLITGEAMPVTKKPGSTVIAGSINAHGSVLIKATHVGNDTTLAQIVKLVEEAQMSKAPIQQLADRFSGYFVPFIIIMSTLTLVVWIVIGFIDFGVVQRYFPNPNKHISQTEVIIRFAFQTSITVLCIACPCSLGLATPTAVMVGTGVAAQNGILIKGGKPLEMAHKIKTVMFDKTGTITHGVPRVMRVLLLGDVATLPLRKVLAVVGTAEASSEHPLGVAVTKYCKEELGTETLGYCTDFQAVPGCGIGCKVSNVEGILAHSERPLSAPASHLNEAGSLPAEKDAVPQTFSVLIGNREWLRRNGLTISSDVSDAMTDHEMKGQTAILVAIDGVLCGMIAIADAVKQEAALAVHTLQSMGVDVVLITGDNRKTARAIATQVGINKVFAEVLPSHKVAKVQELQNKGKKVAMVGDGVNDSPALAQADMGVAIGTGTDVAIEAADVVLIRNDLLDVVASIHLSKRTVRRIRINLVLALIYNLVGIPIAAGVFMPIGIVLQPWMGSAAMAASSVSVVLSSLQLKCYKKPDLERYEAQAHGHMKPLTASQVSVHIGMDDRWRDSPRATPWDQVSYVSQVSLSSLTSDKPSRHSAAADDDGDKWSLLLNGRDEEQYI
B3: Chemotaxis protein CheY, P0AE67 (parent)
chain: MADKELKFLVVDDFSTMRRIVRNLLKELGFNNVEEAEDGVDALNKLQAGGYGFVISDWNMPNMDGLELLKTIRADGAMSALPVLMVTAEAKKENIIAAAQAGASGYVVKPFTAATLEEKLNKIFEKLGM
B4: Malate dehydrogenase, P80040 (parent)
chain: MRKKISIIGAGFVGSTTAHWLAAKELGDIVLLDFVEGVPQGKALDLYEASPIEGFDVRVTGTNNYADTANSDVIVVTSGAPRKPGMSREDLIKVNADITRACISQAAPLSPNAVIIMVNNPLDAMTYLAAEVSGFPKERVIGQAGVLDAARYRTFIAMEAGVSVEDVQAMLMGGHGDEMVPLPRFSTISGIPVSEFIAPDRLAQIVERTRKGGGEIVNLLKTGSAYYAPAAATAQMVEAVLKDKKRVMPVAAYLTGQYGLNDIYFGVPVILGAGGVEKILELPLNEEEMALLNASAKAVRATLDTLKSL
B5: V92L, O26594 (parent)
chain: MRCAFMKKYILIVMLALMVAGCVSEDGNYTYNEGVQDSNVDNPVNDSWTSDSQDKVNDTAEKKSSYEASGSCYHVVDGDTIDVEGVGRIRLVGVNTPERGQPGYREAKDFVKSMCLGRTVQLDIDDAKRHDRYGRVLAVVYVDGVNLNRELLRRGYAEVMYIPPSEFNPYGWT
B6: Thioredoxin, P80579 (parent)
chain: ATMTLTDANFQQAIQGDKPVLVDFWAAWCGPCRMMAPVLEEFAEAHADKVTVAKLNVDENPETTSQFGIMSIPTLILFKGGRPVKQLIGYQPKEQLEAQLADVLQ
B7: Triosephosphate isomerase, P00942 (parent)
chain: MARTFFVGGNFKLNGSKQSIKEIVERLNTASIPENVEVVICPPATYLDYSVSLVKKPQVTVGAQNAYLKASGAFTGENSVDQIKDVGAKWVILGHSERRSYFHEDDKFIADKTKFALGQGVGVILCIGETLEEKKAGKTLDVVERQLNAVLEEVKDWTNVVVAYEPVWAIGTGLAATPEDAQDIHASIRKFLASKLGDKAASELRILYGGSANGSNAVTFKDKADVDGFLVGGASLKPEFVDIINSRN
B8: S121F, Q2YD82 (parent)
chain: MDCAEGRAANLPCNHSTISGNEYVYWYRQIHSQGPQYIIHGLKNNETNEMASLIITEDRKSSTLILPHATLRDTAVYYCIVYDYGQNFVFGPGTRLSVLPYIQNPDPAVYQLRDSKSSDKSVCLFTDFDSQTNVSQSKDSDVYITDKTVLDMRSMDFKSNSAVAWSNKSDFACANAFNNSIIPEDTFFPSPESSCDVKLVEKSFETDTNLNFQNLSVIGFRILLLKVAGFNLLMTLRLWSS

The variants in the first data set derive from B1. To be noted: Bacillus amyloliquefaciens; pH 6.3; 25 °C; Thermal; Fluorescence; MES 50 mM; structure 1BNI; whole UniProt chain shown.
For the variant D122N, the “ddG of mutation (higher = less stable)” value amounted to 5 kcal/mol and the unfolding free energy came out at 5.2 kcal/mol.

In a further data set the parent is B2. To be noted: Homo sapiens; pH 7; 20 °C; Urea; CD; NaH2PO4 50 mM; transition: 2; reversible: No; structure 2ARF; whole UniProt chain shown.
As for H1069Q, the “ddG of mutation (higher = less stable)” value was 0.96 kcal/mol; the “denaturant midpoint (higher = more stable)” value (“denaturant midpoint” below) is 4.7 M and 4 M; the unfolding free energy was 5.74 kcal/mol and 6.21 kcal/mol.

Variants of B3 are the subject of a further data set. To be noted: Escherichia coli (strain K12); pH 7; 25 °C; Urea; Fluorescence; Cacodylate 100 mM; structure 1CEY; whole UniProt chain shown.
With D12A, the “ddG of mutation (higher = less stable)” value was -2.5 kcal/mol and the unfolding free energy was found to be 8.1 kcal/mol.

On to D57A, for which the “ddG of mutation (higher = less stable)” value was -3.3 kcal/mol and the unfolding free energy is 8.9 kcal/mol.

D13A: the “ddG of mutation (higher = less stable)” value is -2.7 kcal/mol and the unfolding free energy is 8.3 kcal/mol.

The variants in another data set derive from B4. To be noted: Chloroflexus aurantiacus (strain ATCC 29366 / DSM 635 / J-10-fl); pH 7.5; Thermal; CD; potassium phosphate 10 mM; reversible: No; structure 1GUY; whole UniProt chain shown.
Turning to T187C, the Tm came to 82.8 °C and the “change of melting temperature, mutant - wild type (higher = more stable)” value (“change of melting temperature, mutant” for short) worked out at 15 °C.

In the next data set the parent is B5. Conditions: Methanothermobacter thermautotrophicus (strain ATCC 29096 / DSM 1053 / JCM 10044 / NBRC 100330 / Delta H); pH 7; 20 °C; GdnHCl; Fluorescence; Sodium phosphate sodium chloride 25 mM 100 mM; whole UniProt chain shown.
In the case of V92L, the “ddG of mutation (higher = less stable)” value was found to be 1.1 kcal/mol, the denaturant m value amounted to 1.03 kcal/mol/M, the “denaturant midpoint” value came to 0.2 M and the unfolding free energy is 1.3 kcal/mol.

The variants in the next data set derive from B6. Conditions: Alicyclobacillus acidocaldarius subsp. acidocaldarius; pH 7; GdHCl; CD; Sodium phosphate 10 mM; reversible: yes; structure 1QUW; whole UniProt chain shown.
In the case of K18G R82E, the “denaturant midpoint” value worked out at 2.4 M.

As to R82E, the “denaturant midpoint” value was 2.7 M.

Take D102X: the “denaturant midpoint” value was determined as 2 M.

Staying with this data set, now noted: Alicyclobacillus acidocaldarius subsp. acidocaldarius; pH 7; Thermal; CD; Sodium phosphate 10 mM; reversible: yes; structure 1QUW; whole UniProt chain shown.
For the variant K18G R82E, the melting temperature (Tm) is 73.1 °C.

For R82E, the Tm was 81.5 °C and 81.4 °C.

On to K18G, for which the Tm is 78.1 °C and 78.8 °C.

The same data set, now with this note: Alicyclobacillus acidocaldarius subsp. acidocaldarius; pH 7; Urea; CD; Sodium phosphate 10 mM; reversible: yes; structure 1QUW; whole UniProt chain shown.
For the variant K18G R82E, the “denaturant midpoint” value is 4.6 M.

On to R82E, for which the “denaturant midpoint” value amounted to 5.5 M.

Regarding K18G, the “denaturant midpoint” value was 5.2 M.

In the case of D102X, the “denaturant midpoint” value amounted to 4 M.

In the next data set the parent is B7. Conditions: Saccharomyces cerevisiae (strain ATCC 204508 / S288c); pH 7.4; Thermal; CD; Tris 50 mM; reversible: No; structure 1YPI; whole UniProt chain shown.
Turning to C126S, the “change of melting temperature, mutant” value is -11.2 °C.

On to C126A, for which the “change of melting temperature, mutant” value was -11.2 °C.

The data set is the same for the next values; noted with them: Saccharomyces cerevisiae (strain ATCC 204508 / S288c); pH 8.5; Thermal; CD; Tris 50 mM; reversible: No; structure 1YPI; whole UniProt chain shown.
For the variant C126S, the “change of melting temperature, mutant” value is -13 °C.

Variants of B8 are the subject of the next data set. To be noted: Homo sapiens; Thermal; fluorescence; structure 6U07; whole UniProt chain shown.
Take S121F: the Tm amounted to 58.5 °C and the “change of melting temperature, mutant” value was 5.2 °C.

Take D151S: the Tm was determined as 53.3 °C and the “change of melting temperature, mutant” value was -1.6 °C.
